Data reported in paper doi:10.64898/2025.12.11.693645 (bioRxiv, 2025).

Biological target: the molecule itself
Test: crystal structure

B1: full length HtpG from M. tuberculosis (HtpGMtb) (enzyme)
chain: MNAHVEQLEFQAEARQLLDLMVHSVYSNKDAFLRELISNASDALDKLRIEALRNKDLEVDTSDLHIEIDADKAARTLTVRDNGIGMAREEVVDLIGTLAKSGTAELRAQLREAKNAAASEELIGQFGIGFYSSFMVADKVQLLTRKAGESAATRWESSGEGTYTIESVEDAPQGTSVTLHLKPEDAEDDLHDYTSEWKIRNLVKKYSDFIAWPIRMDVERRTPASQEEGGEGGEETVTIETETLNSMKALWARPKEEVSEQEYKEFYKHVAHAWDDPLEIIAMKAEGTFEYQALLFIPSHAPFDLFDRDAHVGIQLYVKRVFIMGDCDQLMPEYLRFVKGVVDAQDMSLNVSREILQQDRQIKAIRRRLTKKVLSTIKDVQSSRPEDYRTFWTQFGRVLKEGLLSDIDNRETLLGISSFVSTYSEEEPTTLAEYVERMKDGQQQIFYATGETRQQLLKSPHLEAFKAKGYEVLLLTDPVDEVWVGMVPEFDGKPLQSVAKGEVDLSSEEDTSEAEREERQKEFADLLTWLQETLSDHVKEVRLSTRLTESPACLITDAFGMTPALARIYRASGQEVPVGKRILELNPSHPLVTGLRQAHQDRADDAEKSLAETAELLYGTALLAEGGALEDPARFAELLAERLARTL
**Q.** Does B1 bind?
**A.** Result: binds
